Laboratory results as given in US20110053840A1 (MERCK SERONO S A, published 2011).

B1: HuPb28 (peptide)
peptide: Ac-MLIYYSSYL-NH2
notes: acetylated nonapeptide amide; also called HuPb28 peptide
B2: HuPb18 (peptide)
peptide: Ac-GSLPRHLFR-NH2
notes: acetylated nonapeptide amide
B3: HuPb20 (peptide)
peptide: Ac-MIYWYSSWL-NH2
notes: acetylated nonapeptide amide
B4: HuPb33 (peptide)
peptide: Ac-MIYWYSSWD-NH2
notes: acetylated nonapeptide amide
B5: HuPb31 (peptide)
peptide: Ac-MIYWYNSWL-NH2
notes: acetylated nonapeptide amide
B6: HuPb26 (peptide)
peptide: Ac-LILWYSSWP-NH2
notes: acetylated nonapeptide amide
B7: HuPb24 (peptide)
peptide: Ac-LILWYSSWL-NH2
notes: acetylated nonapeptide amide
B8: HuPb21 (peptide)
peptide: Ac-MIYWYSSWI-NH2
notes: acetylated nonapeptide amide
B9: HuPb22 (peptide)
peptide: Ac-LIYWYSSWL-NH2
notes: acetylated nonapeptide amide
B10: HuPb30 (peptide)
peptide: Ac-MIYWYSNWL-NH2
notes: acetylated nonapeptide amide
B11: HuPb34 (peptide)
peptide: Ac-MIDWYSSWP-NH2
notes: acetylated nonapeptide amide
B12: HuPb15 (peptide)
peptide: Ac-GPLPEHELL-NH2
notes: acetylated nonapeptide amide
B13: HuPb11 (peptide)
peptide: Ac-WGLPEHLER-NH2
notes: acetylated nonapeptide amide
B14: HuPb17 (peptide)
peptide: Ac-KGESGFRDR-NH2
notes: acetylated nonapeptide amide
B15: HuPb29 (peptide)
peptide: Ac-FILIYSNLF-NH2
notes: acetylated nonapeptide amide
B16: HuPb10 (peptide)
peptide: Ac-WPLPLLEER-NH2
notes: acetylated nonapeptide amide
B17: HuPb32 (peptide)
peptide: Ac-DIYWYSSWP-NH2
notes: acetylated nonapeptide amide
B18: HuPb27 (peptide)
peptide: Ac-LLYWYSSWP-NH2
notes: acetylated nonapeptide amide
B19: HuPb14 (peptide)
peptide: Ac-PYEAQELHE-NH2
notes: acetylated nonapeptide amide
B20: HuPb23 (peptide)
peptide: Ac-LILYYYYYL-NH2
notes: acetylated nonapeptide amide
B21: HuPb19 (peptide)
peptide: Ac-GPPERLEFR-NH2
notes: acetylated nonapeptide amide

The binders below were run against T1, HLA-DR2b molecules purified from L cells co-transfected with HLA-DRA and HLA-DRB1*1501 (human) (assay: competitive ELISA (DELFIA) on purified HLA-DR2b, displacement of biotinylated CLIP 97-120).
T1 construct: also called purified DR2b molecules
Excerpt: DR2b molecules were purified from L cells that had been co-transfected with HLA-DRA and HLA-DRB1*1501, by affinity chromatography using the HLA-DR-specific L243 antibody, as described in Weissert et al. (2001), MHC class II-regulated central nervous system autoaggression and T cell responses in peripheral lymphoid tissues are dissociated in myelin oligodendrocyte glycoprotein-induced experimental autoimmune encephalomyelitits, J. Immunol. […] The above publication is incorporated into the present application by reference. The binding assays were performed with a competitive ELISA based on a dissociation-enhanced lanthanide fluoroimmunoassay (Wallac, Turku, Finland). For the competitive ELISA, a 50 nM solution of DR2b molecules was incubated for 48 hours at 37° C. with 50 nM biotinylated CLIP 97-120 in the presence of 250 nM acetylated nonapeptide amide sublibrary or with various concentrations of competitor peptides ranging from 1 nM to 100 μM.
The affinity of each of these peptides for the HLA-DR2b molecule was measured using the ELISA.

First: B1
Second: B2
The IC50 of the first is lower: < 1 nM for the first, 43800 nM for the second. The first is the more potent here.

B3 and B4 are the same in IC50: 1 nM for the first, 1 nM for the second.

First: B5
Second: B6
The IC50 of the first is lower: < 1 nM for the first, 1 nM for the second.

Going from B7 to B8, the IC50 falls from 2 nM to 1 nM (2-fold). The second is the more potent here.

First: B9
Second: B10
The IC50 of the first is higher: 2 nM for the first, < 1 nM for the second. The second is the more potent here.

First: B11
Second: B12
The IC50 of the first is 47000-fold lower: 1 nM for the first, 46700 nM for the second.

B13 and B14 cannot be ordered by IC50: > 100000 nM for the first, > 100000 nM for the second.

First: B15
Second: B16
The IC50 of the first is 17000-fold lower: 2 nM for the first, 33900 nM for the second.

B17 and B18 cannot be ordered by IC50: < 1 nM for the first, < 1 nM for the second.

Compared with B19, B20 is lower in IC50: > 100000 nM for the first, 154 nM for the second. The second is the more potent here.

For B21, the IC50 was > 100000 nM.
